Data from patent US20210063414A1, “METHODS FOR PREVENTING AND/OR TREATING BONE LOSS CONDITIONS BY MODULATING IRISIN” (Dana-Farber Cancer Institute, Inc., priority 2018, published 2021).

Key:
Experiment in all cases: Crosslinking/co-immunoprecipitation/mass spectrometry (TMT quantitative proteomics) to identify irisin receptors
Type in all cases: binding
[1] = target: T1, MLO-Y4 cell surface proteins (Mus musculus, UniProt P16460); conditions: co-precipitated protein Ass1 (ASSY_MOUSE)
T1 construct: endogenous in cells; host or cells: MLO-Y4
T1 sequence (P16460 1-412): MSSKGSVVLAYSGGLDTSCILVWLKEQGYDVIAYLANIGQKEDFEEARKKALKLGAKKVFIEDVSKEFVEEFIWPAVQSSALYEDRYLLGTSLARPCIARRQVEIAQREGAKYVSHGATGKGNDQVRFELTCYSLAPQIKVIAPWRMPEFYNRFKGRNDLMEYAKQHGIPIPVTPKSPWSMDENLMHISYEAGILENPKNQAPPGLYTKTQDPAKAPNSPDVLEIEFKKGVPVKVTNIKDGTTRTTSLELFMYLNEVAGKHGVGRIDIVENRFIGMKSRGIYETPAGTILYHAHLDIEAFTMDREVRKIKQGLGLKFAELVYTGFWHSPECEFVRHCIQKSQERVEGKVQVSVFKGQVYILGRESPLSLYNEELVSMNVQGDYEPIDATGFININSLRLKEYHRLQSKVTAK
Procedure: (§1) MLO-Y4 cells were seeded on 30×150 mm type-I collagen coated dishes as described in cell culture experiment. At 60% cell density, medium was switched to FreeStyle™ 293 Expression medium. After 4 hours incubation, the cells were chilled on ice for 10 minutes, followed by treatment of 10 nM his-tag irisin or his-tag adipsin for 20 minutes. The cells were then incubated with 1.5 mM DTSSP for 30 minutes on ice to do cross-linking, after washing with 15 ml cold PBS twice. The cross-linking was quenched by addition of a final concentration of 20 mM Tris-pH 7.5. The cells were then harvested and homogenized in 1 ml RIPA buffer containing proteaseinhibitor cocktailand phosphatase-inhibitor cocktail. Whole-cell lysates were homogenized by 10 times passages through a 22G needle fitted to a 3 ml syringe. Homogenized samples were rotated gently in cold room for 20 minutes followed by 15,000×g centrifugation for 10 minutes. After addition of a final concentration of 10 mM imidazole, supernatants were incubated with 100 μl Ni-NTA agarose for 1 hour. After centrifugation at 500×g for 1 minute, the supernatants were aspirated and 1 ml cold RIPA buffer containing 10 mM imidazole were added to the agarose. After 10 minutes rotation in cold room, the supernatants were aspirated and 1 ml cold RIPA buffer containing 30 mM imidazole were added to the agarose. After repeating the washing 3 times, 0.8 ml RIPA buffer containing 250 mM imidazole was added and the agarose was gently rotated in a cold room for 20 minutes. After centrifugation at 1000×g for 2 minutes, the supernatants were transferred to 1.5 ml tube and incubated with 100 μl 0.2% sodium deoxycholate and 100 μl 10% trichloroacetic acid in ice for 1 hour. After centrifugation at 12,000×g for 10 minutes at 4° C., the supernatants were removed and 1 ml cold acetone was added to the pellets followed by vortexing for 10 seconds. After one more washing with cold acetone, the pellets were dried at 37° C., and 39 μl PBS and 13 μl 4×NuPAGE LDS were added to the pellets with a final concentration of 5 mM DTT. Solubilized proteins were incubated at 65° C. for 20 minutes followed by incubation with a final concentration of 14 mM iodoacetamide for 45 minutes in the dark. 38 μl samples were loaded to 4-12% gradient SDS-PAGE for separation followed by Coomassie Blue staining. The gels were submitted to quantitative proteomics.
(§2) For in-gel digestions, gels were stained with Coomassie Blue and were excised into 8 equal segments for control and irisin lanes. Gel pieces were destained and dehydrated with 100% acetonitrile, vacuumed dried, and digested in 25 mM HEPES (pH 8.5) with 500 ng sequencing grade trypsin (Promega) and incubated for an overnight at 37° C. (Shevchenko et al. (1996) Anal. Chem. 68:850-858). Digests were treated with 1% formic acid and purified using C18 Stage-Tips as previously described (Rappsilber et al. (2007) Nat. Protoc. 2:1896-1906). Peptides were eluted with 70% acetonitrile and 1% formic acid, then dried using a speedvac. Isobaric labeling of digested peptides was accomplished using 6-plex tandem mass tag (TMT) reagents (Thermo Fisher Scientific, Rockford, Ill.). Reagents, 5.0 mg, were dissolved in 252 μl acetonitrile (ACN) and 5 μl of the solution was added to the digested peptides dissolved in 25 μl of 200 mM HEPES, pH 8.5. After 1 hour at room temperature, the reaction was quenched by adding 1 μl of 5% hydroxylamine. Labeled peptides were combined and acidified prior to C18 Stage-Tips desalting.
(§3) All LC-MS/MS experiments were performed on an Orbitrap Fusion™ Lumos mass spectrometer (Thermo Fisher Scientific, San Jose, Calif., USA) coupled with a Proxeon EASY-nLC™ 1200 LC pump (Thermo Fisher Scientific). Peptides were separated on a 100 μm inner diameter microcapillary column packed with 35 cm of Accucore™ C18 resin (1.8 μm, 100 Å, Thermo Fisher Scientific). […]

[2] = target: T2, MLO-Y4 cell surface proteins (Mus musculus, UniProt P61161); conditions: co-precipitated protein Actr2 (ARP2_MOUSE)
T2 construct: endogenous in cells; host or cells: MLO-Y4
Procedure: as §1, §2, §3

[3] = target: T3, MLO-Y4 cell surface proteins (Mus musculus, UniProt Q8R1J9); conditions: co-precipitated protein Tor2a (TOR2A_MOUSE)
T3 construct: endogenous in cells; host or cells: MLO-Y4
T3 sequence (Q8R1J9 27-321): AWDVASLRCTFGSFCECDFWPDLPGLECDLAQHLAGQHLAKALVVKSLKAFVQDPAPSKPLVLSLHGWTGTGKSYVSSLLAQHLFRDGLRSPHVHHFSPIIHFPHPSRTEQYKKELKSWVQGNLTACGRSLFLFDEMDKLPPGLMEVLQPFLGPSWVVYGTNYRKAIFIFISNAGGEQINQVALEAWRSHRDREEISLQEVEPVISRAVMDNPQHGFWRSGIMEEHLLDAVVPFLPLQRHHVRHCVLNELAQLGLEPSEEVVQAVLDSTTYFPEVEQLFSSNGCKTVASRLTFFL
Procedure: as §1, §2, §3

[4] = target: T4, MLO-Y4 cell surface proteins (Mus musculus, UniProt Q921G7); conditions: co-precipitated protein Etfdh (ETFD_MOUSE)
T4 construct: endogenous in cells; host or cells: MLO-Y4
T4 sequence (Q921G7 33-616): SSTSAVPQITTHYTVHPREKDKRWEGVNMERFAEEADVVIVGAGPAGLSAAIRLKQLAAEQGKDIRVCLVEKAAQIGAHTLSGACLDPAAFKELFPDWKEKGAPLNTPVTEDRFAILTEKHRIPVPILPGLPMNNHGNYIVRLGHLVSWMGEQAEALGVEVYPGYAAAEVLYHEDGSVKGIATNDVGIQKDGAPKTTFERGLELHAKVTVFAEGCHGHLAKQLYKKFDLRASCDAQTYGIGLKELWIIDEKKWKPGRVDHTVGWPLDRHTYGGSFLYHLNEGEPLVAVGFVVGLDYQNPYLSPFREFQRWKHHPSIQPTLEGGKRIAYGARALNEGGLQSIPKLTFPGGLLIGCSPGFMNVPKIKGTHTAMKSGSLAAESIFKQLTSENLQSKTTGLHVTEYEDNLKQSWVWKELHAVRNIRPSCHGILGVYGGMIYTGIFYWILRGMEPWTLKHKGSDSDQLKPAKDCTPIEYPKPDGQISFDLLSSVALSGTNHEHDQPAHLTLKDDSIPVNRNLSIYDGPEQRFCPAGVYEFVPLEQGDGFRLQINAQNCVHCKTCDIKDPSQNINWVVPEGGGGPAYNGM
Procedure: as §1, §2, §3

## adipsin
[1]
  TMT signal-to-noise ratio: 285.885
[2]
  TMT signal-to-noise ratio: 153.626
[3]
  TMT signal-to-noise ratio: 696.28
[4]
  TMT signal-to-noise ratio: 57.6477
